{
  "source": "patent US20230357364A1",
  "about": "(INTERNATIONAL AIDS VACCINE INITIATIVE, published 2023)",
  "binders": {"B1": {"name": "L25.eP04C02 (antibody, V domains shown)", "VH": "not shown", "VL": "QSVLTQPASVSGSPGQSITISCTGTSSDVGGYNYVSWYQQHPGKAPKLMIYDVSNRPSGVSNRFSGSKSGNTASLTISGLQAEDEADYYCSSYTSSSTVVFGGGTKLTVL", "notes": "human IgG1"}, "B2": {"name": "L25.dP06E11 (antibody, V domains shown)", "VH": "QVQLVESGGGLVQPGRSLRLSCAASGFTFDDYAMHWVRQAPGKGLEWVSGISWNSGSIGYADSVKGRFTISRDNAKNSLYLQMNGLRAEDTALYYCAKVPQRSRYLVGWFDPWGQGTLVTVSS", "VL": "not shown", "notes": "human IgG1"}, "B3": {"name": "L12.bP12E05 (antibody, V domains shown)", "VH": "EVQLVQSGAEVKKPGASVKVTCKTSGYIFSGYYMHWVRQVPGQGLEWMGWISPDSGATNYAQKFQGRVTMTRDTSITTSYVELTWLKSDDTAVYYCARGPRYSGTYFDFWGQGTLVTVSS", "VL": "QAVVTQPASVSGSPGQSLTISCTGTSSDIGGFNYVSWYQQHPGKAPKLMIFDVSKRPSGVPNRFSGSKSGNTASLTISGLQAEDEGDYYCSSYTISSAQVFGGGTKLTVL", "notes": "human IgG1"}, "B4": {"name": "L12.bP13A12 (antibody, V domains shown)", "VH": "not shown", "VL": "SYELTQSPSVSVAPGQTARITCGGNNIGSKSVHWYQRKPGQAPVLVVYDDSDRPSGIPERFSGSNSGNTATLTISRVEAGDEADYYCQVWDNNSDHLVFGGGTKLTVL"}, "B5": {"name": "L12.cP07E10 (antibody, V domains shown)", "VH": "EVQLVESGGGLIQPGGSLRLSCAASGFTVSSNYMSWVRQAPGKGLEWVSVIYSGGSTYYADSVKGRFTISRDNSKNTLYLQMNSLRAEDTAVYYCARDPYGYSSIWDGQGGHWGQGTLVTVSS", "VL": "DVVMTQSPSSLSASVGDRVTITCQASQDISNYLNWYQQKPGKAPKLLIYDASNFATGVPSRFSGTGSGTDFTFTISSLQPEDIATYYCQQYDNLPITFGQGTRLEIK", "notes": "human IgG1"}, "B6": {"name": "L12.cP09D03 (antibody, V domains shown)", "VH": "QVQLVQSGAEVKKPGASVKVSCKASGYIFSGYYTHWVRQAPGQGLEWMGWISPDSGGTNYAQKFQGRVTMTRDTSITTAYVELSGLRSDDTAVYYCARGPRYSGTYFDYWGQGTLVTVSS", "VL": "B1 VL with A45V, T98A, V99Q, V100L", "notes": "human IgG1"}, "B7": {"name": "L12.bP11A06 (antibody, V domains shown)", "VH": "EVQLVESGGGLIQPGGSLRLSCAASGLTVSSNYMSWVRQAPGKGLEWVSVIYSGGSTFYADSVKGRFTISRDNSKNTLYLQMNSLRAEDTAVYYCARDLDVYGLDVWGQGTTVTVSS", "VL": "DIVMTQSPSFLSASVGDRVTITCRASQGISSYLAWYQQKPGKAPKLLIYAASTLQSGVPSRFSGSGSGTEFTLTISSLQPEDFATYYCQQLNSYPPKFTFGPGTKVEIK"}},
  "note": "Substitutions are numbered along the chain they refer to.",
  "data": [
    {"target": "SARS-CoV-2 RBD (RBD-2) (SARS-CoV-2)", "assay": "ELISA", "units": {"EC50": "µg/mL"}, "values": [
      {"binder": "B1", "EC50": 0.026},
      {"binder": "B2", "EC50": 0.016},
      {"binder": "B3", "EC50": 1.17},
      {"binder": "B4", "EC50": 0.019},
      {"binder": "B5", "EC50": 0.058}
    ]},
    {"target": "SARS-CoV-1 RBD (RBD-1) (SARS-CoV-1)", "assay": "ELISA", "units": {"EC50": "µg/mL"}, "values": [
      {"binder": "B6", "EC50": "> 50"},
      {"binder": "B1", "EC50": "> 50"},
      {"binder": "B2", "EC50": 0.017},
      {"binder": "B3", "EC50": "> 50"},
      {"binder": "B4", "EC50": "> 50"},
      {"binder": "B5", "EC50": "> 50"}
    ]},
    {"target": "SARS-CoV-2 RBD (RBD-2) (SARS-CoV-2)", "assay": "SPR, Fc-captured IgG", "units": {"Kd": "nM", "koff": "s⁻¹", "kon": "M⁻¹ s⁻¹"}, "values": [
      {"binder": "B6", "Kd": 147, "koff": 0.0843, "kon": 575000},
      {"binder": "B3", "Kd": 183, "koff": 0.143, "kon": 782000},
      {"binder": "B4", "Kd": 26, "koff": 0.0115, "kon": 443000},
      {"binder": "B5", "Kd": 2.6, "koff": 0.000364, "kon": 140000}
    ]},
    {"target": "T1, SARS-CoV-1 spike on pseudovirus (SARS-CoV-1, UniProt P59594 14-1255)", "assay": "cell-based or functional assay", "units": {"PSV neutralization IC50": "µg/mL"}, "values": [
      {"binder": "B6", "PSV neutralization IC50": "> 50"},
      {"binder": "B3", "PSV neutralization IC50": "> 50"},
      {"binder": "B4", "PSV neutralization IC50": "> 50"},
      {"binder": "B5", "PSV neutralization IC50": "> 50"},
      {"binder": "B7", "PSV neutralization IC50": "> 50"}
    ]},
    {"target": "T2, SARS-CoV-2 spike on pseudovirus or live virus (USA-WA1/2020, WT) (SARS-CoV-2, UniProt P0DTC2 14-1273)", "assay": "cell-based or functional assay", "units": {"PSV neutralization IC50": "µg/mL"}, "values": [
      {"binder": "B6", "PSV neutralization IC50": 0.351},
      {"binder": "B3", "PSV neutralization IC50": 0.075},
      {"binder": "B4", "PSV neutralization IC50": 0.051},
      {"binder": "B5", "PSV neutralization IC50": 0.029}
    ]},
    {"target": "SARS-CoV-2 RBD (RBD-2) (SARS-CoV-2)", "assay": "flow, HeLa-ACE2, mAb:RBD=4:1", "units": {"% inhibition of RBD binding to hACE2": "%"}, "values": [
      {"binder": "B6", "% inhibition of RBD binding to hACE2": 50.1, "MFI (RBD binding to cell surface)": 5620},
      {"binder": "B4", "% inhibition of RBD binding to hACE2": -46.7, "MFI (RBD binding to cell surface)": 16400},
      {"binder": "B5", "% inhibition of RBD binding to hACE2": 99.1, "MFI (RBD binding to cell surface)": 178}
    ]},
    {"target": "T1, SARS-CoV-1 spike on pseudovirus", "assay": "cell-based or functional assay", "remark": "another data set of the same source", "units": {"PSV neutralization IC50": "µg/mL"}, "values": [
      {"binder": "B6", "PSV neutralization IC50": "> 50"},
      {"binder": "B1", "PSV neutralization IC50": "> 50"},
      {"binder": "B2", "PSV neutralization IC50": "> 50"},
      {"binder": "B3", "PSV neutralization IC50": "> 50"},
      {"binder": "B4", "PSV neutralization IC50": "> 50"},
      {"binder": "B5", "PSV neutralization IC50": "> 50"},
      {"binder": "B7", "PSV neutralization IC50": "> 50"}
    ]},
    {"target": "T2, SARS-CoV-2 spike on pseudovirus or live …", "assay": "cell-based or functional assay", "remark": "another data set of the same source", "units": {"Maximum Plateau of Neutralization": "%", "PSV neutralization IC50": "µg/mL"}, "values": [
      {"binder": "B6", "Maximum Plateau of Neutralization": 85, "PSV neutralization IC50": 0.135},
      {"binder": "B1", "Maximum Plateau of Neutralization": 100, "PSV neutralization IC50": 0.155},
      {"binder": "B2", "Maximum Plateau of Neutralization": 55, "PSV neutralization IC50": 34.6},
      {"binder": "B3", "Maximum Plateau of Neutralization": 89, "PSV neutralization IC50": 0.255},
      {"binder": "B4", "Maximum Plateau of Neutralization": 50, "PSV neutralization IC50": "> 50"},
      {"binder": "B5", "Maximum Plateau of Neutralization": 100, "PSV neutralization IC50": 0.1},
      {"binder": "B7", "Maximum Plateau of Neutralization": 100, "PSV neutralization IC50": 0.019}
    ]},
    {"target": "SARS-CoV-2 RBD (RBD-2) (SARS-CoV-2)", "assay": "flow, HeLa-ACE2, mAb:RBD=2:1", "units": {"% inhibition of RBD binding to hACE2": "%"}, "values": [
      {"binder": "B6", "% inhibition of RBD binding to hACE2": 40.9, "MFI (RBD binding to cell surface)": 6640},
      {"binder": "B4", "% inhibition of RBD binding to hACE2": -44.2, "MFI (RBD binding to cell surface)": 16100},
      {"binder": "B5", "% inhibition of RBD binding to hACE2": 98.6, "MFI (RBD binding to cell surface)": 237}
    ]}
  ]
}
